For series [1], the target named is M1-linked tetra-ubiquitin (UniProt P0CG48 1-76; P0CG48 1-76; P0CG48 1-76; P0CG48 1-76). Put plainly: SPR. Background: In SPR one partner is held on a chip, and binding of the other changes the refractive index at the surface.
Series [2] deals with the molecule itself. Put plainly: crystal structure.

Sequence of M1-linked tetra-ubiquitin (P0CG48 1-304, one chain of several): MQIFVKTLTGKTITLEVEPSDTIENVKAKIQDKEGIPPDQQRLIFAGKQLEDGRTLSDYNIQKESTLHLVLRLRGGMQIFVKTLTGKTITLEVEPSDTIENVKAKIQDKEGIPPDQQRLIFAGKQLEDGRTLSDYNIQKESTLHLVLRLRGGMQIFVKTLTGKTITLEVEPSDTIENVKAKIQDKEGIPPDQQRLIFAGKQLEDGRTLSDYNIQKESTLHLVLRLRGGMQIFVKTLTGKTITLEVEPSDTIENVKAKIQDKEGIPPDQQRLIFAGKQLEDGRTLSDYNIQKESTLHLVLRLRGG

B1: GST-ABIN-1 UBAN (aa 463-532), wild type (domain or fragment, mouse, UniProt Q9WUU8 463-532, looked up)
chain: LRKQELVTQNELLKQQVKIFEEDFQRERSDRERMNEEKEELKKQVEKLQAQVTLTNAQLKTLKEEEKAKE
A word on the Kd: it is the equilibrium constant for the complex coming apart. As to B1, the Kd in series [1] stood at 972 nM.

B2: ABIN-1 UBAN (mouse, aa 463-532), GST tag cleaved (domain or fragment, UniProt Q9WUU8 463-532, looked up)
chain: LRKQELVTQNELLKQQVKIFEEDFQRERSDRERMNEEKEELKKQVEKLQAQVTLTNAQLKTLKEEEKAKE
In general, stoichiometry N refers to the number of molecules, sites or subunits per partner or assembly. With B2, the “stoichiometry N” value in series [2] worked out at 2 chains in the oligomer.

B3: GST-OPTN UBAN (aa 420-509) S473E (domain or fragment, human, UniProt Q96CV9 420-509, looked up)
chain: RAVLKELSEKLELAEKALASKQLQMDEMKQTIAKQEEDLETMTILRAQMEVYCEDFHAERAAREKIHEEKEQLALQLAVLLKENDAFEDG
As to B3, the Kd in series [1] turned out to be 508 nM.

B4: GST-OPTN UBAN (aa 420-509), wild type (domain or fragment, human, UniProt Q96CV9 420-509, looked up)
chain: RAVLKELSEKLELAEKALASKQLQMDEMKQTIAKQEEDLETMTILRAQMEVYCSDFHAERAAREKIHEEKEQLALQLAVLLKENDAFEDG
In series [1], B4 gave a Kd of 916 nM.

B5: GST-NEMO UBAN (aa 250-339), wild type (domain or fragment, mouse, UniProt O88522 250-339, looked up)
chain: GMQLEDLRQQLQQAEEALVAKQELIDKLKEEAEQHKIVMETVPVLKAQADIYKADFQAERHAREKLVEKKEYLQEQLEQLQREFNKLKVG
As for B5, the affinity in series [1], expressed as Kd, was 562 nM.

B6: GST-NEMO UBAN (aa 250-339) A303E (domain or fragment, mouse, UniProt O88522 250-339, looked up)
chain: GMQLEDLRQQLQQAEEALVAKQELIDKLKEEAEQHKIVMETVPVLKAQADIYKEDFQAERHAREKLVEKKEYLQEQLEQLQREFNKLKVG
For B6, in series [1], the Kd was found to be 362 nM.
